Experimental data from publication PMC4654632 (Journal of molecular biology, 2012).

Experiment: HPLC sedimentation assay of fibril thermodynamic stability
Assay type: physicochemical
Details: from Cr (Ka = 1/Cr), PBS pH 7.4, 25 °C

wild-type: wild-type amyloid-β 40-residue peptide (Aβ40), made by Fmoc solid-phase synthesis
ΔG (free energy of association): -7.2 ± 0.2 kcal/mol
